In patent publication US12173057B2, “Antibodies and therapeutic uses thereof” (Ibex Biosciences, Inc., priority 2018, dated 2024):
Entries after “also recorded” stand apart in the source; their conditions may differ. Each block holds one molecule with its values, some of them ahead of it.

Key:
[1] = tested on: MDA-MB-231 cells; test: ORIS cell migration (motility) assay; type: cell-based, human
Method: Cell motility assays utilized the Platypus Technologies ORIS™ cell migration assay platform, which is generally described at platypustech.com/discoverAssay.html.
Specifically, the filamin-A antibodies of the present disclosure were evaluated in the ORIS™ cell migration assay, which used tri-coated 96 well plates (Platypus #CMATR1.101). Cells were seeded at approximately 50,000 cells/well. Cells were incubated overnight at 37° C. without CO2 in DMEM, in the case of HEK-293 cells, or L-15 containing 10% FBS, in the case of MDA-MB-231 cells. Stoppers covering cell growth chambers were removed with the ORIS™ stopper tool, growth media was removed, and wells were gently washed with 100 microliters of sterile PBS. Stoppers were left in place in reference wells until the staining step to serve as pre-migration controls. After washing, a 100 microliter volume of fresh culture media containing the specific treatment was added to each well. The cells were then allowed to incubate overnight. At the end of the incubation period, cells were fluorescently stained with Calcein AM for 30 minutes. Fluorescence was then measured using a microplate reader with a Detection Mask in place.
FIGS. 1 and 2 depict the relative fluorescence units (RFUs) present in the detection zones for each condition (mean+/−S.D., n=2 wells/condition).
Wells containing the cells existed in three formats: coated with collagen, coated with fibronectin, or a tissue culture (TC) treatment.
Well treatments were as follows: no antibody control, mouse antibody (mAb FLNA 1 mcg/ml), mouse antibody (mAb FLNA 20 mcg/ml), human chimeric antibody (hAb FLNA 1 mcg/ml), human chimeric antibody (hAb FLNA 20 mcg/ml), apicdin (100 nM), cytochalasin B (30 micromolar); see FIG. 1. An increase in the number of RFUs correlates with an increase in cellular motility.

[2] = tested on: filamin-A; test: Immunofluorescence assays with MDA-MB-231 breast cancer cell line; type: cell-based, human
Method: Characterization of the filamin-A mAbs was performed using immunofluorescence assays with the MDA-MB-231 breast cancer cell line. […] For comparison, the AHO1402 mAb and another commercially available mAb, TI10 (Millipore MAB1680-C), were assayed at the same time.
The primary antibodies utilized in the immunofluorescence assays were as follows: • Anti-Filamin-A, clone TI10 (Millipore, p/n MAB1680-C) • Anti-Filamin-A, clone 209 #13 (Life Technologies, p/n AHO1402) • Anti-Filamin-A, mouse mAb • Anti-Filamin-A, human chimeric mAb • Anti-beta Actin, rabbit polyclonal (Rockland, p/n 600-401-886S)
Two primary methods of Immunofluorescence staining were utilized. The first method comprises single staining or double staining with methanol as a fixative and 0.2% Triton as a permeabilization agent, which is described in Alper et al. 2009. The second method utilizes a double staining technique with 2% paraformaldehyde as a fixative and 0.2% triton as a permeabilization agent.
Primary antibodies were incubated with the fixed and permeabilized cells for 1 hour at room temperature at a concentration of 1.25 mcg/ml. After one or more wash steps, secondary antibodies were incubated with the cells for 1 hour at room temperature. […]

[3] = tested on: SKBR3 cells (breast adenocarcinoma); test: Endocytosis assay (Zenon pHrodo labelled antibody, flow cytometry); type: cell-based, human; conditions: 12 μg/mL labelled antibody; 24 hours, 37° C.
Method: Experiments were conducted to determine if antibody B411 is endocytosed by cells. 250,000 cells/well were plated and incubated overnight at 37° C., 5% CO2. 12 μg/mL of antibodies were labelled with Zenon pHrodo kit (human green) according to the manufacturer's protocol for 5 minutes at room temperature, in the dark. The plated cells were then incubated with the labeled antibodies for 24 hours, at 37° C., 5% CO2. Cells were then lifted by manual scraping, and washed prior to analysis by flow cytometry.

[4] = tested on: MDA-MB-231 breast cancer cells; test: ORIS cell migration assay with Calcein AM / propidium iodide / Hoechst 33342 staining; type: cell-based, human; conditions: overnight incubation with antibody versus buffer control
Method: Additional cell assays were carried out using the B411 antibody and the breast cancer cell lines MDA-MB-231 and SKBR3. Specifically, the filamin-A antibody B411 was evaluated in the ORIS™ cell migration assay, which used tri-coated 96 well plates (Platypus #CMATR1.101). Cells were seeded at approximately 25,000 or 50,000 cells/well. Cells were incubated overnight at 37° C., CO2, McCoy's in the case of SKBR3 cells, or L-15 containing 10% FBS, without CO2 in the case of MDA-MB-231 cells. Stoppers covering cell growth and migration zones were removed with the ORIS™ stopper tool, growth media was removed, and wells gently washed with 100 microliters of sterile PBS. Stoppers were left in place in reference wells until the staining step to serve as no-migration controls. After washing, a 100 microliter volume of fresh culture media containing the specific treatment was added to each well. The cells were then allowed to incubate overnight. At the end of the incubation period, cells were fluorescently stained as follows: • Carefully remove remaining culture medium from wells and wash with 100 μL of PBS. […] Fluorescence was then measured using a microplate reader with a Detection Mask in place. • Carefully remove Calcein AM and wash with 100 μL of PBS. […] Incubate 5-10 min at room temperature. • Take a fluorescence image (blue, green and red channels) of a representative well(s) using 5× magnification.

[5] = tested on: HEK293A (human embryonic kidney cell line); test: CellCountzEZ Cell Survival Assay; type: cell-based; conditions: for ratio of inhibition: dose not restated in b354 (10 μg)
Method: (§1) A study was conducted to assess cell survival following incubation with antibody B411. DU145 (human prostate cancer cell line) and HEK293A (human embryonic kidney cell line) cells were seeded on 96-well plates (10^4 cells/well) and incubated for 4 hours at 37° C. 1 μg or 10 μg B411 (endotoxin removed, 1.2 EU/mL) was added to the wells and incubated for 24 or 48 hours. An untreated group for both cell types was also included. Cell survival was detected using CellCountzEZ™ Cell Survival Assay kit and results were determined by reading OD412 with a reference to OD650.

[6] = tested on: DU145 (human prostate cancer cell line); test: CellCountzEZ Cell Survival Assay; type: cell-based; conditions: for ratio of inhibition: dose not restated in b354 (10 μg)
Method: as §1

[7] = biological target: T1, surface filamin A on SKOV3 cell line (ovarian cancer) (Homo sapiens, UniProt P21333); test: B411 surface staining by flow cytometry; type: binding; conditions: 2 μg primary antibody, 1 hour on ice
T1 construct: endogenous in cells; host or cells: SKOV3
T1 sequence (P21333 whole entry): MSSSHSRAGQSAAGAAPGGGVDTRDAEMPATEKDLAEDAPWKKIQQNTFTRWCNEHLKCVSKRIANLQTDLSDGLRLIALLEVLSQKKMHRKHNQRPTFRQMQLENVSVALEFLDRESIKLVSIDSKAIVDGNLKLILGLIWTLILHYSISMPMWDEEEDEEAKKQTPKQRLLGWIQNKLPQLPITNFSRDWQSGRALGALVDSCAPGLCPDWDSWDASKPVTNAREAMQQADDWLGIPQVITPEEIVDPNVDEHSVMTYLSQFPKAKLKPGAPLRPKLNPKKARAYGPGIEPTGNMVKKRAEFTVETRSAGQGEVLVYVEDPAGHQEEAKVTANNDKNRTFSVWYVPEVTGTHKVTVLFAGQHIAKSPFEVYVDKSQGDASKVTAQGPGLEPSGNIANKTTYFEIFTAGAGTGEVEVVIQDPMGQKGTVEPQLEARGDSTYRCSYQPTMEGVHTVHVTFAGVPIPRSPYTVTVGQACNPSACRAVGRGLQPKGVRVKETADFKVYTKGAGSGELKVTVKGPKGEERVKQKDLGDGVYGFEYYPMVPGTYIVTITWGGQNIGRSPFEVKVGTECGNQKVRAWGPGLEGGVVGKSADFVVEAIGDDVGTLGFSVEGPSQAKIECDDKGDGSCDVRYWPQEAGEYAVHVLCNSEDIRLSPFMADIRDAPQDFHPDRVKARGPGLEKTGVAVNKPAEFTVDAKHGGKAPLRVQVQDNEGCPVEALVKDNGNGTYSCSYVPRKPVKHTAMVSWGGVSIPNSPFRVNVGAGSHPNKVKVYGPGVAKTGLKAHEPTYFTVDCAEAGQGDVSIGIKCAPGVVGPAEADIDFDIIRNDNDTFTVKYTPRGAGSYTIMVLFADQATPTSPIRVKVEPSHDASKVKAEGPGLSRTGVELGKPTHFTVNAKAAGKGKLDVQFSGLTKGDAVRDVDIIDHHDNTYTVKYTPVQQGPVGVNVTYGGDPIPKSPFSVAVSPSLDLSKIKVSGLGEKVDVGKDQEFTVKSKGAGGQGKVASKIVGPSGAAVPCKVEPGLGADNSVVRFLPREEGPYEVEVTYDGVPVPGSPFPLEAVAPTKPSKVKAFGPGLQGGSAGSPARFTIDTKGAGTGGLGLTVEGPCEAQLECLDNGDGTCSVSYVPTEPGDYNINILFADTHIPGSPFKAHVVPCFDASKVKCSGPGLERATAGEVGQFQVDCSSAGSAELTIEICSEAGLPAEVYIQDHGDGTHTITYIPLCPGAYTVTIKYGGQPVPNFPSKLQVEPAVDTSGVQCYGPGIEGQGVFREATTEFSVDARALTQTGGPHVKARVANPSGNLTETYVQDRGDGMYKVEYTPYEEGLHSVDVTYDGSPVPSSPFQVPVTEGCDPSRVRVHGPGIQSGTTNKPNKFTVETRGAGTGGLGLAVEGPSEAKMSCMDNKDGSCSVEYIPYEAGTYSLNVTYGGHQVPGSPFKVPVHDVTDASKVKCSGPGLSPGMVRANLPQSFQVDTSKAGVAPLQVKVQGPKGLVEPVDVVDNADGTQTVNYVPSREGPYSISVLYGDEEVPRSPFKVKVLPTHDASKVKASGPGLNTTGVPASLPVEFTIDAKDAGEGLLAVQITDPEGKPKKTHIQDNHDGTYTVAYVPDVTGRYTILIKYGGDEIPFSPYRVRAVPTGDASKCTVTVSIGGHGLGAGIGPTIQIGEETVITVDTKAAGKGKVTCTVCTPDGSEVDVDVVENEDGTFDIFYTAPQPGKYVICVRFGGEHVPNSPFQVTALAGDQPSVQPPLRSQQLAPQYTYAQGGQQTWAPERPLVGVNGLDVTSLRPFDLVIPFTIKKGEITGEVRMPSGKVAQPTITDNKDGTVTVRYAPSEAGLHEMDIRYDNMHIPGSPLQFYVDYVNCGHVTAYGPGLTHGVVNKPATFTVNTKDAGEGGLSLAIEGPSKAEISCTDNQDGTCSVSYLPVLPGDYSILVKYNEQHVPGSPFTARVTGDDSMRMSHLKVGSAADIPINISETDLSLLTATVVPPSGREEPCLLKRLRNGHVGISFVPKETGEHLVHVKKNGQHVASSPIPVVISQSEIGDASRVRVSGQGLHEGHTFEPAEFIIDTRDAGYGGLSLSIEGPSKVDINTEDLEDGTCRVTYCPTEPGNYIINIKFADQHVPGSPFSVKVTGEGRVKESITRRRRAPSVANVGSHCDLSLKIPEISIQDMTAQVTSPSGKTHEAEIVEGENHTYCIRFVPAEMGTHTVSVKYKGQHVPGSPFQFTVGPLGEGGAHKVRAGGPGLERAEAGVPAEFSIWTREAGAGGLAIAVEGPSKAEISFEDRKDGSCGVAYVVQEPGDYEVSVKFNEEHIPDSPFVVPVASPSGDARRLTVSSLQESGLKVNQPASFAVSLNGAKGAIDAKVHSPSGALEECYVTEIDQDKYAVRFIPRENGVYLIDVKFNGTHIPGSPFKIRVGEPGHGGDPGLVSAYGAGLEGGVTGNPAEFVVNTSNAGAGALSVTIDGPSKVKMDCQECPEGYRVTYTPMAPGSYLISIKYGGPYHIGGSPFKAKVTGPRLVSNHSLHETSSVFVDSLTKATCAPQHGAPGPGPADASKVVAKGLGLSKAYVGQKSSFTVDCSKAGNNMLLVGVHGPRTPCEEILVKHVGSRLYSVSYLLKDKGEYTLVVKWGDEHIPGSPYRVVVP
Method: (§2) B411 surface staining on several different cell types was conducted. Cells were plated at a concentration of 0.5-1.0 million cells per well, and incubated overnight. Cells were then lifted from the wells, washed, and resuspended in flow cytometry media with 2 μg of primary antibody for 1 hour on ice. Cells were washed and incubated with the secondary antibody (5 μg/ml) for 30 minutes on ice. Cells were washed again and analyzed by flow cytometry.

[8] = biological target: T2, surface filamin A on HeLa cells (Homo sapiens, UniProt P21333); test: B411 surface staining by flow cytometry; type: binding; conditions: 2 μg primary antibody, 1 hour on ice
T2 construct: endogenous in cells; host or cells: HeLa
T2 sequence (P21333 whole entry): as above
Method: as §2

[9] = biological target: T3, surface filamin A on SKBR3 (breast adenocarcinoma) cell line (Homo sapiens, UniProt P21333); test: B411 surface staining by flow cytometry; type: binding; conditions: 2 μg primary antibody, 1 hour on ice
T3 construct: endogenous in cells; host or cells: SKBR3
T3 sequence (P21333 whole entry): as above
Method: as §2

[10] = biological target: T4, surface filamin A on SKNAS (human neuroblastoma) cell line (Homo sapiens, UniProt P21333); test: B411 surface staining by flow cytometry; type: binding; conditions: 2 μg primary antibody, 1 hour on ice
T4 construct: endogenous in cells; host or cells: SKNAS
T4 sequence (P21333 whole entry): as above
Method: as §2

Molecule: C=C1[C@@H](C)[C@H]2[C@H](Cc3ccccc3)NC(=O)[C@]23OC(=O)/C=C/[C@H](O)CCC[C@@H](C)C/C=C/[C@H]3[C@@H]1O [cytochalasin B, reference compound]
effect on cell migration ([1]; tissue culture (TC) treatment wells, no coating): little effect across treatments with the exception of cytochalasin B

B1: murine antibody: recombinant mouse anti-filamin-A mAb of the disclosure (mouse antibody B186); mouse VL SEQ ID NO:22, VH SEQ ID NO:24 (antibody, listed as Mus sp., V domains shown)
VH: EVKLVESGGGLVQPGGSLKLSCAASGFTFSSYTMSWVRQTPEKRLEWVAYISNGGGSTYYPDTVKGRFTISRDNAKNTLYLQMSSLKSEDTAMYYCASDGLLRPFAYWGQGTLVTVSA
VL: DIVMTQSHKFMSTSVGDRVSITCKASQDVSIDVAWYQQKPGQSPKLLIYSASHRYTGVPDRFTGSGSGTDFTFTISGVQAEDLAVYFCQQHYSTPLTFGAGTKLELK
immunofluorescence staining pattern ([2]; MDA-MB-231 cells, primary antibody 1.25 mcg/ml): punctate staining pattern
immunofluorescence staining pattern ([2]; first method: methanol fixative, 0.2% Triton permeabilization): reproduced the punctuate staining pattern
effect on cell motility ([1]; collagen coated wells): no considerable differences
effect on cell migration ([1]; collagen treated wells, 1 μg/mL): did not lead to a reduction in cell migration
effect on cell motility / cell migration ([1]; fibronectin coated wells, 1 μg/mL): decreases in cell motility
effect on cell motility / cell migration ([1]; fibronectin coated wells, 1 μg/mL, listed as murine mAbs): less of a reduction
cell motility (relative fluorescence units in detection zone) ([1]; fibronectin coated wells, antibody 1 μg/mL, overnight incubation): 191.34 RFU

surface staining [7]: Highly Positive staining
surface staining [8]: Highly Positive staining
surface staining [10]: Highly Positive staining
B2: B411: anti-filamin-A human chimeric antibody, light chain variable region SEQ ID NO:2, heavy chain variable region SEQ ID NO:7 (antibody, V domains shown)
VH: EVKLVESGGGLVQPGGSLKLSCAASGFTFSSYTMSWVRQTPEKRLEWVAYISNGGGSTYYPDTVKGRFTISRDNAKNTLYLQMSSLKSEDTAMYYCASDGIIRPFAYWGQGTLVTVSA
VL: DIVMTQSHKFMSTSVGDRVSITCKASQDVSLDVAWYQQKPGQSPKLLIYSASHRYTGVPDRFTGSGSGTDFTFTISGVQAEDLAVYFCQQHYSTPLTFGAGTKLELK
modifications: VH domain of mAbs B407 and B411; human chimeric mAb VL domain of mAbs B408, B409, B410, and B411
endocytosis of antibody [3]: detected
number of cells positive for endocytosis, SKBR3 compared to HEK (non-cancer) cells [3]: More SKBR3 cells were positive for B411 than HEK cells
Calcein AM staining (metabolic activity) [4]: more variability in Calcein AM staining
Hoechst 33342 staining (apoptosis-like phenotype) [4]: increase in Hoechst 33342 staining
effect on cell proliferation ([5]; 1 μg dose, 24 h or 48 h): did not have an effect
inhibition of cell proliferation ([5]; 10 μg): Inhibition of HEK293 cell proliferation was also observed
ratio of inhibition ([5]; 24 h): 9.3%
ratio of inhibition ([5]; 48 h): 17.7%
inhibition effect on proliferation versus untreated group ([6]; 1 μg dosing, 24 h): significant inhibition effect on proliferation
inhibition effect on proliferation versus untreated group ([6]; 1 μg dosing, 48 h): no statistically significant effect
cell proliferation (OD412 with reference to OD650) ([6]; 1 μg or 10 μg, 24 or 48 hours, overall statement): inhibits DU145 (cancer) cell proliferation
inhibition effect on proliferation versus untreated group ([6]; 10 μg dosing, 24 h and 48 h): significant inhibition effects on proliferation
ratio of inhibition ([6]; 24 h): 7.8%
ratio of inhibition ([6]; 48 h): 14.6%
surface staining [9]: some positive staining; also recorded: weaker compared to the other cell lines tested
